The values that follow come from patent US20100273722A1, “MODIFIED MINIATURE PROTEINS” (Yale University, priority 2007, published 2010).

The target in experiment [1] is Down-regulated Hck kinase (containing an N-terminal His6 tag). Description: cell-based or functional assay.
The target of experiment [2] is human Fyn (residues 81-142) SH3 domain-GST fusion protein (human), P06241. Put plainly: fluorescence polarization, 50 nM labeled peptide, SH3-GST titrated. On the technique in general: Polarisation of emitted light reports the rotation of a fluorescent probe.
Experiment [3] concerns the target T1, human Lck (residues 62-128) SH3 domain-GST fusion (human), P06239.
T1 chain: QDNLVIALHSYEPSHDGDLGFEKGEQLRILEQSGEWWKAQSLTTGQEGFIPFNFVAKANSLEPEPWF
Described as above.

For experiment [4], the target named is human Lyn (residues 62-122) SH3 domain-GST fusion protein (human), P07948. The description is as above.
Sequence of human Lyn (residues 62-122) SH3 domain-GST fusion protein (human), P07948 (P07948 62-122): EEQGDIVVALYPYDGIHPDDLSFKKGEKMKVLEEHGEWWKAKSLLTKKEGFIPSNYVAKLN

Sequence of human Fyn (residues 81-142) SH3 domain-GST fusion protein (human), P06241 (P06241 81-142): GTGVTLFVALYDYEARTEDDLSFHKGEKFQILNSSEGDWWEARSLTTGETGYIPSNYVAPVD

B1: PP2 (designed binder)
chain: APPLPPRNRGDDAPVEDLIRFYDNLQQYLNVVTRHRY
In the case of B1, in experiment [1], the Activity (nmol · sec^-1), activator at 50 micromolar (nmol · sec^-1) was 139; the Fold-Activation, activator at 50 micromolar came to 13 fold; the Kact (concentration of activator at half-maximal activation) came to 48 µM.

B2: PP1 (designed binder)
chain: APPLPPRNPGDDAPVEDLIRFYDNLQQYLNVVTRHRY
Consider B2, for which, in experiment [1], the Activity (nmol · sec^-1), activator at 50 micromolar (nmol · sec^-1) is 83.6 and the Fold-Activation, activator at 50 micromolar is 8 fold.

B3: PP3 (designed binder)
chain: APPLPPRNRPRDAPVEDLIRFYDNLQQYLNVVTRHRY
With B3, in experiment [1], the Activity (nmol · sec^-1), activator at 50 micromolar (nmol · sec^-1) worked out at 83.9; the Fold-Activation, activator at 50 micromolar came out at 7 fold; the Kact (concentration of activator at half-maximal activation) was found to be 48 µM.

B4: ^Flu1, fluorescently labeled analog of Peptide 1 (peptide)
peptide: CGGAPPLPPRNRPR
modifications: not checked
The Kd is the constant that tells how readily two partners part at equilibrium. A lower Kd goes with higher affinity. Turning to B4, the Kd was 1400 nM in experiment [2], > 20000 nM in experiment [3] and 2000 nM in experiment [4].
